{"source": "paper PMC10120048", "molecular_target": "Cytochrome bX", "assay": "native MS; 5 µM purified CytbX in 0.2 M ammonium acetate pH 8.0 with lauryldimethylamine oxide at 2x critical micelle concentration; Q-Exactive UHMR; dimer of the protein with itself"}
{"substance": "Cytochrome bX", "values": [{"measurement": "stoichiometry N", "result": 2}]}
